Read-outs that look alike come from different tables or passages of the source. Values belong to the binder of their own block, whether it stands above or below them.
Columns and labels:
human IL3 [1] = target: T1, human IL3 (human, UniProt P08700 20-152); experiment: cell-based or functional assay
T1 sequence: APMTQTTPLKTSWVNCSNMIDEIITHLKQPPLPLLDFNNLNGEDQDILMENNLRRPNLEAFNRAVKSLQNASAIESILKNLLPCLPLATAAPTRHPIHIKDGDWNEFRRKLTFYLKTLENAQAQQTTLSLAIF

human IL3 [2] = target: T1, human IL3; experiment: cell-based or functional assay; remark: listed apart in the source
human IL3 [3] = target: T1, human IL3; experiment: cell-based or functional assay; remark: listed apart in the source
human IL3 [4] = target: T1, human IL3; experiment: cell-based or functional assay; remark: listed apart in the source
human IL3 [5] = target: T1, human IL3; experiment: cell-based or functional assay; remark: listed apart in the source
human IL3 [6] = target: T1, human IL3; experiment: cell-based or functional assay; remark: listed apart in the source
[7] = target: T2, IL3 peptide, amino acids 22-48 (mature) / 41-67 (native) (human); experiment: ELISA on coated linear IL3 peptide
T2 construct: Linear peptide derived from human IL3, coated on the plate
T2 peptide: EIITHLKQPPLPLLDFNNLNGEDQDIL
Experimental: (§1) Peptides were coated overnight in PBS in Nunclon 96 Flat Bottom Transparent Polystyrol plates (Thermo Fisher) at a concentration of 10 μg/ml (60 μl/well). Then […] were washed three times with wash buffer (0.05% Tween 20 in PBS), followed by blocking for 2 hours at room temperature with 1% BSA/PBS. After another washing step with wash buffer, antibody GRT002-H16L2 was added (60 μl of a 10 μg/ml solution in 1% BSA/PBS) and incubated for 1 hour at room temperature. 1% BSA/PBS served as a control. After another washing step, GRT002-H16L2 was incubated with a secondary antibody (HRP-conjugated AffinePure fragment goat anti-human IgG; Jackson Immuno Research) for 1 hour at room temperature. After a final washing step, 100 μl of ABTS (2,2′-azino-bis(3-ethylbenzothiazoline-6-sulfonic acid) was added to each well. Absorption was measured in a infinite 200Pro reader (Tecan) at 405 nm.

[8] = target: T3, IL3 peptide, amino acids 26-48 (mature) / 45-67 (native) (human); experiment: ELISA on coated linear IL3 peptide
T3 construct: Peptide in which amino acids 22-25 are deleted
T3 peptide: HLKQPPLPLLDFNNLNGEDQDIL
Experimental: as §1

[9] = target: T4, IL3 peptide, amino acids 28-48 (mature) / 47-67 (native) (human); experiment: ELISA on coated linear IL3 peptide
T4 construct: Peptide in which amino acids 22-27 are deleted
T4 peptide: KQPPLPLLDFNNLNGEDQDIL
Experimental: as §1

Inhibitory activity (block of IL-3 induced downregulation of CD131 on primary human basophils; chimeric P8C11 normalized to 100%) (human IL3 [1]): 100%
Inhibitory activity (block of IL-3 induced downregulation of CD131 on primary human basophils; chimeric P8C11 normalized to 100%) (human IL3 [2]): 100%
Inhibitory activity (block of IL-3 induced downregulation of CD131 on primary human basophils; chimeric P8C11 normalized to 100%) (human IL3 [3]): 100%
Inhibitory activity (block of IL-3 induced downregulation of CD131 on primary human basophils; chimeric P8C11 normalized to 100%) (human IL3 [4]): 100%
Inhibitory activity (block of IL-3 induced downregulation of CD131 on primary human basophils; chimeric P8C11 normalized to 100%) (human IL3 [5]): 100%
Inhibitory activity (block of IL-3 induced downregulation of CD131 on primary human basophils; chimeric P8C11 normalized to 100%) (human IL3 [6]): 100%
B1: Chimeric P8C11 (antibody, V domains shown)
VH: QVQLQQSGAEMVRPGVSVKIACKGSGFTFTDYALHWVKQSHAKSLEWIGLISTYYGDTTYNQRFKGKATMTVDKSSSTAYMELARLTSEDSAIYYCVITTVAGTDAMDYWGQGTSVTVSS
VL: DIQMNQSPSSLSASLGDTITITCHASQNINVWLSWYQQKPGNIPKLLIYKASNLHTGVPSRFSGSGSGTGFTLTISSLQPEDIATYYCQQGYSYPYTFGGGTKLEIK

Inhibitory activity (block of IL-3 induced downregulation of CD131 on primary human basophils; chimeric P8C11 normalized to 100%) (human IL3 [3]): 4%
B2: HC3.MMH × muLC (antibody, V domains shown)
VH: QVQLQQSGAEMVRPGVSVKIACKGSGFTFTDYALHWVKQSHAKSLEWIGLISTYYGDTTYNQRFKGRVTITRDTSASTAYMELSSLRSEDTAIYYCVITTVAGTDAMDYWGQGTLVTVSS
VL: DIQMNQSPSSLSASLGDTITITCHASQNINVWLSWYQQKPGNIPKLLIYKASNLHTGVPSRFSGSGSGTGFTLTISSLQPEDIATYYCQQGYSYPYTFGGGTKLEIK

Inhibitory activity (block of IL-3 induced downregulation of CD131 on primary human basophils; chimeric P8C11 normalized to 100%) (human IL3 [2]): 6%
B3: HC3 × MuLC (antibody, V domains shown)
VH: QVQLVQSGAEMKKPGASVKVACKGSGFTFTDYALHWVRQAPGQRLEWMGLISTYYGDTTYNQRFKGRVTITRDTSASTAYMELSSLRSEDTAIYYCVITTVAGTDAMDYWGQGTLVTVSS
VL: DIQMNQSPSSLSASLGDTITITCHASQNINVWLSWYQQKPGNIPKLLIYKASNLHTGVPSRFSGSGSGTGFTLTISSLQPEDIATYYCQQGYSYPYTFGGGTKLEIK

Inhibitory activity (block of IL-3 induced downregulation of CD131 on primary human basophils; chimeric P8C11 normalized to 100%) (human IL3 [2]): 100%
B4: MuHC × LC2 (antibody, V domains shown)
VH: QVQLQQSGAEMVRPGVSVKIACKGSGFTFTDYALHWVKQSHAKSLEWIGLISTYYGDTTYNQRFKGKATMTVDKSSSTAYMELARLTSEDSAIYYCVITTVAGTDAMDYWGQGTSVTVSS
VL: DIQMTQSPSSLSASVGDRVTITCHASQNINVWLSWYQQKPGKAPKLLIYKASNLHTGVPSRFSGSGSGTDFTFTISSLQPEDIATYYCQQGYSYPYTFGGGTKLEIK

Inhibitory activity (block of IL-3 induced downregulation of CD131 on primary human basophils; chimeric P8C11 normalized to 100%) (human IL3 [4]): 9%
B5: HC5 × LC2 (antibody, V domains shown)
VH: QVQLVQSGAEMKKPGASVKVACKGSGFTFTDYALHWVRQAPGQRLEWMGLISTYYGDTTYNQRFKGRVTITRDTSASTAYMELARLTSEDSAIYYCVITTVAGTDAMDYWGQGTSVTVSS
VL: DIQMTQSPSSLSASVGDRVTITCHASQNINVWLSWYQQKPGKAPKLLIYKASNLHTGVPSRFSGSGSGTDFTFTISSLQPEDIATYYCQQGYSYPYTFGGGTKLEIK

Inhibitory activity (block of IL-3 induced downregulation of CD131 on primary human basophils; chimeric P8C11 normalized to 100%) (human IL3 [5]): 40%
B6: HC10 × LC2 (antibody, V domains shown)
VH: QVQLVQSGAEMKKPGASVKVACKGSGFTFTDYALHWVRQAPGQRLEWMGLISTYYGDTTYNQRFKGRVTITVDKSASTAYMELSSLRSEDTAIYYCVITTVAGTDAMDYWGQGTLVTVSS
VL: DIQMTQSPSSLSASVGDRVTITCHASQNINVWLSWYQQKPGKAPKLLIYKASNLHTGVPSRFSGSGSGTDFTFTISSLQPEDIATYYCQQGYSYPYTFGGGTKLEIK

Inhibitory activity (block of IL-3 induced downregulation of CD131 on primary human basophils; chimeric P8C11 normalized to 100%) (human IL3 [3]): 100%
B7: HC3.HMM × muLC (antibody, V domains shown)
VH: QVQLVQSGAEMKKPGASVKVACKGSGFTFTDYALHWVKQSHAKSLEWIGLISTYYGDTTYNQRFKGKATMTVDKSSSTAYMELARLTSEDSAIYYCVITTVAGTDAMDYWGQGTSVTVSS
VL: DIQMNQSPSSLSASLGDTITITCHASQNINVWLSWYQQKPGNIPKLLIYKASNLHTGVPSRFSGSGSGTGFTLTISSLQPEDIATYYCQQGYSYPYTFGGGTKLEIK

Inhibitory activity (block of IL-3 induced downregulation of CD131 on primary human basophils; chimeric P8C11 normalized to 100%) (human IL3 [5]): 25%
B8: HC8 × LC2 (antibody, V domains shown)
VH: QVQLVQSGAEMKKPGASVKVSCKASGFTFTDYALHWVRQAPGQRLEWMGLISTYYGDTTYNQRFKGRVTMTVDKSSSTAYMELSSLRSEDTAIYYCVITTVAGTDAMDYWGQGTLVTVSS
VL: DIQMTQSPSSLSASVGDRVTITCHASQNINVWLSWYQQKPGKAPKLLIYKASNLHTGVPSRFSGSGSGTDFTFTISSLQPEDIATYYCQQGYSYPYTFGGGTKLEIK

Inhibitory activity (block of IL-3 induced downregulation of CD131 on primary human basophils; chimeric P8C11 normalized to 100%) (human IL3 [5]): 50%
B9: HC9 × LC2 (antibody, V domains shown)
VH: QVQLVQSGAEMKKPGASVKVACKGSGFTFTDYALHWVRQAPGQRLEWMGLISTYYGDTTYNQRFKGRVTMTVDKSASTAYMELSSLRSEDTAIYYCVITTVAGTDAMDYWGQGTLVTVSS
VL: DIQMTQSPSSLSASVGDRVTITCHASQNINVWLSWYQQKPGKAPKLLIYKASNLHTGVPSRFSGSGSGTDFTFTISSLQPEDIATYYCQQGYSYPYTFGGGTKLEIK

Inhibitory activity (block of IL-3 induced downregulation of CD131 on primary human basophils; chimeric P8C11 normalized to 100%) (human IL3 [5]): 100%
B10: HC7 × LC2 (antibody, V domains shown)
VH: QVQLVQSGAEVKKPGASVKVACKGSGFTFTDYALHWVRQAPGQRLEWMGLISTYYGDTTYNQRFKGRVTMTVDKSSSTAYMELSSLRSEDTAVYYCVITTVAGTDAMDYWGQGTLVTVSS
VL: DIQMTQSPSSLSASVGDRVTITCHASQNINVWLSWYQQKPGKAPKLLIYKASNLHTGVPSRFSGSGSGTDFTFTISSLQPEDIATYYCQQGYSYPYTFGGGTKLEIK

Inhibitory activity (block of IL-3 induced downregulation of CD131 on primary human basophils; chimeric P8C11 normalized to 100%) (human IL3 [4]): 100%
B11: HC4 × LC2 (antibody, V domains shown)
VH: QVQLVQSGAEMKKPGASVKVACKGSGFTFTDYALHWVRQAPGQRLEWMGLISTYYGDTTYNQRFKGKATMTVDKSSSTAYMELSSLRSEDTAIYYCVITTVAGTDAMDYWGQGTLVTVSS
VL: DIQMTQSPSSLSASVGDRVTITCHASQNINVWLSWYQQKPGKAPKLLIYKASNLHTGVPSRFSGSGSGTDFTFTISSLQPEDIATYYCQQGYSYPYTFGGGTKLEIK

Inhibitory activity (block of IL-3 induced downregulation of CD131 on primary human basophils; chimeric P8C11 normalized to 100%) (human IL3 [3]): 100%
B12: HC3.MHM × muLC (antibody, V domains shown)
VH: QVQLQQSGAEMVRPGVSVKIACKGSGFTFTDYALHWVRQAPGQRLEWMGLISTYYGDTTYNQRFKGKATMTVDKSSSTAYMELARLTSEDSAIYYCVITTVAGTDAMDYWGQGTSVTVSS
VL: DIQMNQSPSSLSASLGDTITITCHASQNINVWLSWYQQKPGNIPKLLIYKASNLHTGVPSRFSGSGSGTGFTLTISSLQPEDIATYYCQQGYSYPYTFGGGTKLEIK

Inhibitory activity (block of IL-3 induced downregulation of CD131 on primary human basophils; chimeric P8C11 normalized to 100%) (human IL3 [4]): 100%
B13: HC6 × LC2 (antibody, V domains shown)
VH: QVQLVQSGAEMKKPGASVKVACKGSGFTFTDYALHWVRQAPGQRLEWMGLISTYYGDTTYNQRFKGRVTMTVDKSSSTAYMELSSLRSEDTAIYYCVITTVAGTDAMDYWGQGTLVTVSS
VL: DIQMTQSPSSLSASVGDRVTITCHASQNINVWLSWYQQKPGKAPKLLIYKASNLHTGVPSRFSGSGSGTDFTFTISSLQPEDIATYYCQQGYSYPYTFGGGTKLEIK

Inhibitory activity (block of IL-3 induced downregulation of CD131 on primary human basophils; chimeric P8C11 normalized to 100%) (human IL3 [6]): 100%
binding result [7]: binds
binding result [8]: binds
binding result [9]: binds
B14: GRT002-H16L2 (antibody, human IgG1, kappa, V domains shown)
VH: QVQLVQSGAEVKKPGASVKVSCKGSGFTFTDYALHWVRQAPGQRLEWMGLISTYYGDTTYNQRFKGRVTMTVDKSTSTAYMELSSLRSEDTAVYYCVITTVAGTDAMDYWGQGTLVTVSS
VL: DIQMTQSPSSLSASVGDRVTITCHASQNINVWLSWYQQKPGKAPKLLIYKASNLHTGVPSRFSGSGSGTDFTFTISSLQPEDIATYYCQQGYSYPYTFGGGTKLEIKR
notes: IgG1 of the G1m3 (heavy chain) and KM3 (light chain) allotype, lacks the C-terminal lysine; also called HC16 × LC2; humanized derivative of antibody P8C11

Reference: patent publication US20250382362A1 (UNIVERSIT TSKLINIKUM REGENSBURG, published 2025)
